Results on three molecules are retold here after paper PMC3905869.

Data set [1] addresses T1, VirB delta N (Shigella flexneri, UniProt P0A247 129-309).
T1 sequence: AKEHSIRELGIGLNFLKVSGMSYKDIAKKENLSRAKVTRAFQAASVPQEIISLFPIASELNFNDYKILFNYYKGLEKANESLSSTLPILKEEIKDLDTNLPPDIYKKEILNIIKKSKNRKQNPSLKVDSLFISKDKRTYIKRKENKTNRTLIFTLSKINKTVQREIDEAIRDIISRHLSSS
Kind of data set: fluorescence anisotropy. In general terms: Polarisation of emitted light reports the rotation of a fluorescent probe.

Data set [2] has as its target T2, VirB delta C (Shigella flexneri, UniProt P0A247 1-250).
T2 sequence: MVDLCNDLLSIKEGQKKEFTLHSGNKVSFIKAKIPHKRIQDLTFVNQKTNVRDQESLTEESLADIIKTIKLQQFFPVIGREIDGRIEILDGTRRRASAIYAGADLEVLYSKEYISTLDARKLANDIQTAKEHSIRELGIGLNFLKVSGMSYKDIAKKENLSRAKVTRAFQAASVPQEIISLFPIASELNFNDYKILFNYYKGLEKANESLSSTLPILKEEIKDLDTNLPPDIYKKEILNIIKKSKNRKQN
Nature of the data set: fluorescence anisotropy.

The target in data set [3] is T3, VirB FL (Shigella flexneri, UniProt P0A247 1-309).
T3 sequence: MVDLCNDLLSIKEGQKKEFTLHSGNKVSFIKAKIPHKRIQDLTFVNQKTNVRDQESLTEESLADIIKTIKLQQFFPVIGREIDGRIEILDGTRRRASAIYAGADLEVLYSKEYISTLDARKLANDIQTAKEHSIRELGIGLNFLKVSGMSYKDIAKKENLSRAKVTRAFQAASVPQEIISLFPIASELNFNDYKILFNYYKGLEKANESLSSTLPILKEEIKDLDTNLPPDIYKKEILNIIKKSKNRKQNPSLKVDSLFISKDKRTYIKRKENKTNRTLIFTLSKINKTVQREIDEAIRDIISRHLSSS
Nature of the data set: fluorescence anisotropy.

For data set [4], the target named is T4, VirB core (HTH domain) (Shigella flexneri, UniProt P0A247 129-250).
T4 sequence: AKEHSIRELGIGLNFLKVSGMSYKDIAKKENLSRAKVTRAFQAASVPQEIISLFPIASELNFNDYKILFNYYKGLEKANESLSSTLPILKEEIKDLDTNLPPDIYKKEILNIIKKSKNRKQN
Kind of data set: fluorescence anisotropy.

Data set [5] addresses T3, VirB FL. Kind of data set: EMSA with self-competition. On the technique in general: Mobility shift assays separate free from complexed probe on a gel.
Data set [6] addresses T1, VirB delta N. Kind of data set: EMSA with self-competition.
Data set [7] deals with T2, VirB delta C. Nature of the data set: EMSA with self-competition.
Data set [8] has as its target T2, VirB delta C. Kind of data set: competition.

B1: FAM-icsB-wt-50bp (dsDNA)
DNA 1: CTCGTTTCATCATGAAATCCCACAAGATAAAGTGCCTGATGTATCAGGCT
DNA 2: AGCCTGATACATCAGGCACTTTATCTTGTGGGATTTCATGATGAAACGAG
On to B1, for which the Kd in data set [1] was 0.012 ± 0.0003 µM; in data set [2], 0.139 ± 0.015 µM; in data set [3] it was 0.011 ± 0.0003 µM; in data set [4], 0.016 ± 0.003 µM.

B2: icsB-wt (dsDNA)
DNA 1: AAACTCGTTTCATCATGAAATCCCAC
DNA 2: GTGGGATTTCATGATGAAACGAGTTT
As for B2, the binding result in data set [5], in data set [6] and in data set [7] was “binds” in each case.

B3: icsB-mut (dsDNA)
DNA 1: AAACTCGTTTCATCGCTGGGCCCCAC
DNA 2: GTGGGGCCCAGCGATGAAACGAGTTT
Turning to B3, in data set [8], the binding result was “no binding”.

The Kd is the equilibrium constant for the complex coming apart.
